From the DeepSol protein solubility set

Test: soluble on expression in E. coli; label from the status in PepcDB or PDB records
For “MGSDKIHHHHHHMKLYAENILLNDGWASKQTITIEQGIITAVDAGKIEGAEIAKGAVIPGMVNCHSHAFQRAFAGFSEQGSEGQDSFWTWRKIMYQFLAQLTELDAKNIAKQLYIEMLKMGYTRVAEFHYLHHDIDGSTYNSSVTTDKSASLATMAQAIFDAAKESGIGLTLLPVLYQHSGFGEQTPSDGQKRFINSTEQFNQLVSDCFTLSEQYSNTNVGIAPHSLRAVDKTSLLSAVKHVRSLDNQAPIHIHISEQQKEVDDCLAHFGQRPVQWLLDNVELDKHWCLIHATHIDEAERKGIIAKEAIAGICPTTEANLGDGIFPTTEFLADKGTIAIGSDSHISVNPIEELRWLEYAQRLIKQQRAILATDEQASVGQNLWQQAAIGGAQSTNSNTGSLAIGKQADLLVLDKDKTKLFASASQQLLDSMIFASQQNPVSDVMVNGVWQIKAQQHVEQEQASDNFANLLVRLSAS”, the “soluble on expression in E. coli” value was “not soluble”.
In the case of “MTGNVLNYYAGGNTARGFHNLYEENLKGLDRLFILKGGPGTGKSSLIKAIGREWIEKGYDIEFLHCSSDNKSVDGVIIPKLKVGIVDGTSPHVIEPKMPGVVEEYINLGIAWDSDKLRKQKLEIERFVSEASKAFQSAYARFKEALVIHDEWEKIYIDNIDFNKANELTNQLIQKLFADKSGRQSLVKHRFLGAATPKGAVDFVPNLTEGLPHRYFIKGRPGSGKSTMLKKLAKAAEEKGFEVEVYHCGFDPNSLDMVIVRELGFAIFDSTAPHEYFPSREGDEIIDMYALIVTPGTDEKYAKEIRDVSIQYKAKMNEAMSFLAKAKSIRDKLERIYIAAMDFSIVDAYKEEIQKEFERIAATVIEKQQ”, the “soluble on expression in E. coli” value was “not soluble”.
For “MSYVAEKKKIANVLSNRYASAELTELWSPEAKILLERQLWIAVMKAQKNLGVDIPTEAISAYEAVIDRIDLDSIAQREKITRHDVKARIEEFNALAGYEHIHKGMTSRDLTENVEQLQIYRSLEMMRNKSVSVAAAIAQHAAQYQSLVMAGRSHNVAAQATTLGKRFASAAEEILVAIDRVEDLLSRYPLRGIKGPMGTAQDMLDLVGGDESKLAALETQIADHLGIARVFDSVGQVYPRSLDFDAVSALVQLGAGPSSLAHTIRLMAGNETVTEGFKEGQVGSSAMPHKMNARSCERVGGLQVILRGYLTMVADLSGQQWNEGDVFCSVIRRVALPDAFFALDGMYETFLTVLAEFGAFPAMIDRELERYLPFLATTRILMAAVRVGVGRETAHEVIKENAVAVALNMRENGGEQDLIDRLAADERLPMTREQLDEALADRHAFIGAAESQVARVVDRVNDLVRRYPAAAQYTPGDIL”, the “soluble on expression in E. coli” value was “not soluble”.
With “ALESARAGYWEWNVENGTILIDRQWAVISGYNSADFDMLTMEQWRELCHPADLGVVTKSIEELLDGSMERLELELRVRHKNGEWIRVLDCGKVTGRSKNGKPSCLTGSRQALASLHDK” the “soluble on expression in E. coli” value was “soluble”.
With “MGSSHHHHHHGGTGENLYFQGGSGGTCPSISQSEVGIVETCGRFSYTADPGIHCLWCGSVLVRRVTLRLQEYELKVESKTKDNVFVTLSLVIQYQVSPDKLAEVYYACDSSLQCMRDYVLNSIRAKIPLYKLEALYVERGTISQQLKDEVDAIIGTYGIEIVSALISDIDPGAEITKAMNEVQKFQRLRVASVDAAETEKLKRVRAAEARCEARRLSGEGLAEQRKAIVAGLMHSIEDVQSEVRDLTSNDATNMLLMNQYYDTLQAIAANSSSSVIMLESNGGLEKVAAQLRQGVTHMMR” the “soluble on expression in E. coli” value was “not soluble”.
For “MLNYTGLENKNVLVVGLAKSGYEAAKLLSKLGANVTVNDGKDLSQDAHAKDLESMGISVVSGSHPLTLLDNNPIIVKNPGIPYTVSIIDEAVKRGLKILTEVELSYLISEAPIIAVTGTNGKTTVTSLIGDMFKKSRLTGRLSGNIGYVASKVAQEVKPTDYLVTELSSFQLLGIEKYKPHIAIITNIYSAHLDYHENLENYQNAKKQIYKNQTEEDYLICNYHQRQVIESEELKAKTLYFSTQQEVDGIYIKDGFIVYKGVRIINTEDLVLPGEHNLENILAAVLACILAGVPIKAIIDSLTTFSGIEHRLQYVGTNRTNKYYNDSKATNTLATQFALNSFNQPIIWLCGGLDRGNEFDELIPYMENVRAMVVFGQTKAKFAKLGNSQGKSVIEANNVEDAVDKVQDIIEPNDVVLLSPACASWDQYSTFEERGEKFIERFRAHLPSY”, the “soluble on expression in E. coli” value was “not soluble”.
With “MDMGLREMCVGEKRTVIIPPHLGYGEAGVDGEVPGSAVLVFDIELLELVAGLPEGYMFIWNGEVSPNLFEEIDKDGNGEVLLEEFSEYIHAQVASGKGKLAPGFDAELIVKNMFTNQDRNGDGKVTAEEFKLKDQEAKQDEL” the “soluble on expression in E. coli” value was “soluble”.
For “KGLSADKKYFETRVNPTSVFWTGGKWKERLVQIMSQTQEQDILKFLKQTASPAMHELQRELSEEYGLSVRVDKMFHRDEPAIEFVIRKETMRDFMYGIKSVGQDVSDQLINDGKLPHIRHQTTYKPYAYFFDGRVGYDVQYMNKDELIADILKNYERYLMLLDDVGQELMAHEQVELAE”, the “soluble on expression in E. coli” value was “not soluble”.
In the case of “MGSDKIHHHHHHMCLVVAARWPSRLVSSVKEDKMKPSTSRLTLLAGILGLPMALCLPLAAQAQSNQWQVNGFIGQGYISADGSEFIVGESGDTFDVTEAALHLSWMPDEHFRVAGAARYRQWGNLDESGLSADYLFAEYKFILDQGYVGARGGLFKSEAGFYTSTRDVSFTRPGILLPQSVYSDYLRDALLHITGGELFGGHPLLDGSLEWHLTLGDAQTSDDLTRNVVGSEEFGRFDADGYWGADLEYQDDSLRLGLTYFDAKSRYQSHLGGPFADGSLRSKHWIVSAQYRINFLEFTGEYLHWDRYVGGVFVPPELGIYEVRGYGYYLDVRGYLPGDVEVFVRYDHQVQDEKDPDGDKLAERGLPGYFGYAHDWTIGTRWLPAKDWMVAAEYHKVRGAAWVTPILLPNPAVQDKDWSLFAIEISYKFQW”, the “soluble on expression in E. coli” value was “not soluble”.
In the case of “MHHHHHHSSGVDLGTENLYFQSMAAGGDHGSPDSYRSPLASRYASPEMCFVFSDRYKFRTWRQLWLWLAEAEQTLGLPITDEQIREMKSNLENIDFKMAAEEEKRLRHDVMAHVHTFGHCCPKAAGIIHLGATSCYVGDNTDLIILRNALDLLLPKLARVISRLADFAKERASLPTLGFTHFQPAQLTTVGKRCCLWIQDLCMDLQNLKRVRDDLRFRGVKGTTGTQASFLQLFEGDDHKVEQLDKMVTEKAGFKRAFIITGQTYTRKVDIEVLSVLASLGASVHKICTDIRLLANLKEMEEPFEKQQIGSSAMPYKRNPMRSERCCSLARHLMTLVMDPLQTASVQWFERTLDDSANRRICLAEAFLTADTILNTLQNISEGLVVYPKVIERRIRQELPFMATENIIMAMVKAGGSRQDCHEKIRVLSQQAASVVKQEGGDNDLIERIQVDAYFSPIHSQLDHLLDPSSFTGRASQQVQRFLEEEVYPLLKPYESVMKVKAE”, the “soluble on expression in E. coli” value was “soluble”.
In the case of “MSLNPKILEKWMAEGQVTLPQVLVKNYATIGLNEVELVLLLQIQSFAAEAEFFPSMEMLTNRTTLPLEETIKTMDSLLKKGVIAIEQSQDNSRMISEQYNLAPLWGKLVALYENKEADSKHEKELEKQTSLYTLFEAEFGRPLSPMEAEMLSAWVEQDRTSPDLIKEALKEAVISQKLNFRYIDRILLNWSKQGVKTIEDAKRVAEEFHQNGRTSQAINQTEVKKSAGSIPLYDWLEKRKGEGHHHHHH”, the “soluble on expression in E. coli” value was “soluble”.
With “MNIDIKEAHRRMLYLLQSFDTVCKKHDIDYWLDYGTLLGAIRHQGFIPWDTDTDVGMLRSDYALFLEKGVPELPQDIFFQTPETEPAMAPWSWLVEARLRDRHSRYVPDKKTPAEPMQFGGLQLDLFIYDWDGKYENALSNSFERNLSESRIHLRLDEVEYLDTARFEGVEFPVPSGYDAYLTRCYGDYRTFPPEEERQIPEVVAWSVLEHHHHHH” the “soluble on expression in E. coli” value was “soluble”.
For “MRGSHHHHHHGSACELGTMPHIDNDVKLDFKDVLLRPKRSTLKSRSEVDLTRSFSFRNSKQTYSGVPIIAANMDTVGTFEMAKVLCKFSLFTAVHKHYSLVQWQEFAGQNPDCLEHLAASSGTGSSDFEQLEQILEAIPQVKYICLDVANGYSEHFVEFVKDVRKRFPQHTIMAGNVVTGEMVEELILSGADIIKVGIGPGSVCTTRKKTGVGYPQLSAVMECADAAHGLKGHIISDGGCSCPGDVAKAFGAGADFVMLGGMLAGHSESGGELIERDGKKYKLFYGMSSEMAMKKYAGGVAEYRASEGKTVEVPFKGDVEHTIRDILGGIRSTCTYVGAAKLKELSRRTTFIRVTQQVNPIFSEAC”, the “soluble on expression in E. coli” value was “soluble”.
In the case of “MGSDKIHHHHHHMTCKRALTAYPELLSRTVAAPSWVMPGTVRDNAIFLSGEVDEVGLCFFETAACLAYGENDLPEHLADLPLGWHVHLPGDLPWCDGGAEAAVPALRLMDKVAFLGAHRAVLHPPVGFADGAARLVAFVRAWEAAGRNPEDLCLENIRGEDLTGLWRTLCDLGCKVCLDMGHVLSYGQYGLLSLPGLSGRTSMLHANAPGPAGRHLSLDTLDGAGGGVGRAMCALLPDDAVVMVEVFDWEGVRRSLPLLETWFAAQR”, the “soluble on expression in E. coli” value was “not soluble”.
For “MSLKFVGLVGSNAEQSYNRKLLEYIRKQFKLKFELELLEIDEVPMFNQDQSWKDSFQLRLLYNKIIRADGVIIATPEHNHTITAALKSVLEWLSCEVHPFENKPVMIVGASYYDQGTSRAQVHLRKILDAPGVNAYTLPGNEFLLGKAKEAFDDNGNIINQGTVDFLETCLDNFMSYVGVVSKLQKPKPIEPEDLDCNHPIATTITEVDPDDPEWVEKVAEITGAVSGDAYVKLDHGILTVDQINMFLKAMPFELTYADDNNQFLYYNNAHQDPDTMYAKRIPEQSGNRLSTVHNSLPAGRMKNVEWVIGTLRNGNQEYVRTLIPSPNPAVLNTHNYQAMYYDDGSFAGINEIVFNFKPWLDWYLQTTGQRLVGGEGHHHHHH”, the “soluble on expression in E. coli” value was “soluble”.
For “RWETHVYRAVKDLLVGLGFTEVLQLVLTSPRLVEAAGFSSMAVEVLNPVQQEYSVLRPTLLITLLQTLRENQHRRKPVKVFEAGNAVYLEDGEPRDEEKLALGVLDEEAGFEDVQAPLYAVLRIMGVDFEVEEASHPMFMEGRTAAVKVGGERLGYIGEVKPEVLEAFGLEYPVAAAEISLEVLARWTSRT”, the “soluble on expression in E. coli” value was “not soluble”.
For “MSLEAGAGAPLARYAAWRRAGDFIFLSGIIPVNPLTGTIVNGFQDVPEPVRELLGATGEFSTDAKQGPILAQSWYVLESIRRTVASAGGQMSDVIKLVQYFRNLDHFPYYSRVRKLFYPDQPPVSTVVQVSEMLPDATVLIEVEATVWLPPSFNSEAEGHHHHHH”, the “soluble on expression in E. coli” value was “soluble”.
In the case of “MAHHHHHHMKCQKIRRDIFIYMLYNFSFCAGKKEDKDKGKDKDKEKKKLESVPISHMGKKKKKNKGTSGHSKLPNVTPNTKCRLKLLKLERIKDYLLLEEEYITNQEQIKSSDDKNYVKLKIDDLRGSPVSVGTLEELIDENHGIIATSVGPEYYVNILSFVDKDLLEPGCSVLLNNKTNSVVGILLDEVDPLVSVMKVEKAPLESYADIGGLESQIQEIKEAVELPLTHPELYEDIGIKPPKGVILYGPPGTGKTLLAKAVANETSATFLRVVGSELIQKYLGDGPKLVREMFKVAEEHAPSIVFIDEIDAVGTKRYEATSGGEREIQRTMLELLNQLDGFDSRGDVKVIMATNRIDSLDPALIRPGRIDRKIQLPNPDTKTKRRIFQIHTSKMTMSPDVDLEEFVMSKDELSGADIKAICTEAGLLALRERRMKITQADLRKARDKALFQKKGNIPEGLYL”, the “soluble on expression in E. coli” value was “not soluble”.
In the case of “MGSDKIHHHHHHAATSNKKNTIKLISTNNNIKIPVYDRQGKQINGFTVESGANVTVIGKPIIVQQKYRKDVFEGIKINGKTYASLGDGGYIPINATGVITSKGMKITRDTAVYNKNGKKLSTYRGHTATLKKDSIVKYGGATTYTIPVSYFNIGNGRYVRASYVQEYNGQTVLTLNYNTFVYNKKGKRINYDGQRKLMNGGVVTTNSKIREAKSSDQNYFYSSANYTDKNKLAFTTTKIKGQDYLSIGKGEYIKIANVKTANGMILFTKGPITITLPSDTTIYSSNFKETKKQIAAGKKVILDKTEIDNSLSDPQLYFRIKGTNELIYWGDLGEYPGVDHTAVYDPNYYSIYSFPLRQFME”, the “soluble on expression in E. coli” value was “not soluble”.
